In PMC5587760, “Halotolerant aminopeptidase M29 from Mesorhizobium SEMIA 3007 with biotechnological potential and its impact on biofilm synthesis” (Scientific Reports, 2017):

How the values were obtained:
[1] = test system: CC(C)C[C@H](N)C(=O)Nc1ccc([N+](=O)[O-])cc1; test: purified protein; conditions: 3 mM Co2+, pH 8.5, 40 °C (abstract: 45 °C optimum)
[2] = biological target: MesoAmp, aminopeptidase M29 (Aminopeptidase T) from Mesorhizobium SEMIA 3007 (Mesorhizobium SEMIA 3007); test: SEC; Hiload16/600 Superdex 200, 100 mM Tris-HCl pH 8.0, 200 mM NaCl, 5% (w/v) glycerol, 0.5 mL/min; native mass estimated from a calibration curve of standard proteins and compared with the mass on SDS-PAGE

Row | stoichiometry N [2] | Substance | Km [1] [µM] | kcat [1] [s⁻¹]
1 |  | MesoAmp (Mesorhizobium sp. SEMIA 3007) | 236.4 ± 18.2 | 712.1 ± 88.12
2 | 2 | MesoAmp, aminopeptidase M29 (Aminopeptidase T) from Mesorhizobium SEMIA 3007 (enzyme) |  | 
